The results in this text go back to the DeepSol protein solubility set.

The data set is described as follows: soluble on expression in E. coli; label from the status in PepcDB or PDB records.
In the case of “MIKRKLQDLAVCCSYQVDFLHEKKHSVKEFKRKYEVLDEIGRGGFGIVYEATTRQDGQQPVAVKFVQHKHVRSWTMTCRQLIPSEVCHLETCEDIPGVIKILDWFANSKGFLIVMERPANCMDLFDMVSVHGPLNEDMGKFIFKQVITTVFNMYSKHGLLHRDIKDENLIVNMNTGEVKLVDFGATAYAEKATKKEFQGTRSYCPPEWFRDQLYLPLEATSWSLGVLLFILLTGKLPFRNEIQICLGNVKFPPDLSKEVCQLVKSCLTTSTSARASLAQIAAHPWMETDKPFFGGDLTFEEALMEIKNPPVVIEDKEAEEEDNDLNDVVILTRSRESRTDLDAESICTMVTAVEDRYEPSIAVKELEQEEIVETGETTNLMRSESRYDNISSSSFCDYVSLVSSSYDDQFTSTSDIYQSACEVFPHTGSSSSLSRSMGAVKSASAYNLVRMRKKSSIFKSFDTELDPVSENDHQPLIPETSSATCQSTYSNDEDVTISEKVVSPAQPLPPPLSPRKGSLQCFESVPRSRDSVIRMSRHRPLQFAIDSSSPPPALAIFQVSPTASVG”, the “soluble on expression in E. coli” value is reported as “not soluble”.

For the sequence “MGSDKIHHHHHHMKYLIVVAHPDDEVLGAGASISRWTQNGDIVDVAIMCAEAKARAFRPDDNELEDDTNASTKYLGVDRIFEATFPNIEMNTVPHLRLVQFIESAIKESEPDIVITHHPADTNNDHLQTSMACQEAIRLFQRRPEVKRVKEFWYMEVPSCTEWAINNAMNLFRPNCYVEVGQEGVDAKITALGMYRGVMRPYPHPRSAEYITGLAAVRGSQWGTNYAESFEIVLREY”, the “soluble on expression in E. coli” value is given as “not soluble”.

“MGSDKIHHHHHHMESQNVSFRVAREDLVTAVAWVARNLPTKPTQPVLRAMLITADDEGLELAGYDYDVSTRVRLSAEVSQPGRIAVAGKLLSEITGSLPNKPVDFRIDGSKAFVTCGSSRFELPLIPLDDYPMLPKLPAGTGSINAKLFTEAVSQVASAAGKDDSLPMLTGVSMEIVGNQINLAATDRFRLALRTFEWEANDPELNVKLLIPARTLLDNARSLDSGLNDSIDIAVGTGDQVGREGLFGVHTDNRETTTRLLDADFPNIAPLLPKEHTAIASVEIAPLVDAIRRVSLVAERNAQIVLHFSEGQVILTAGATEAGHAEETLPCAFTGKELTIAFNPGYLKDGLSVVPTSRAVFGFTEPSRPAIMIPEPEEMPSANENGIFQTPDTYFTYLLMPVRLPG”: the “soluble on expression in E. coli” value is on record as “not soluble”.

Turning to “MGSDKIHHHHHHMKKLALISLDGNGIYNLKYMPFLSELAEKGDIFTVDSIFPTLTDLVHTTVMTGVEPRHHWVVENGYYDRLSGVRVKFYEYDVAFNPHKVIKAPLIQDILRQRGVRIASVSGYTMPPFSNVDVRIFPPFFSSDELYRRHGRDWKKDVWVLNSALYLYEECKPDLLLVHFASIDGMQHDHGPESREALKAVETVDSAIRALWERLKDEYAFIIFADHGQEEVHTWVNLREYLRNKGIETLRVSSGGGVHVYLKDPREREDAYEVLRRAPGVKAVFLREDLPYLNAPVSGDLIVSAKEGFWFCHHRECKGIKGKSYWVRGMHGSLNERVVKVPLVLWNLEAKKEEATLYDIAPTILKFFGVEKRVEMIGKSLI”, the “soluble on expression in E. coli” value is on record as “not soluble”. For the sequence “MAQVKAEYDFQSQPNTGELSISAGEVLTVIRENIDGGWIEGRNVRGSVGLFPESYVTPYQASRPPPVLPPPLPPTSSGPPAASSRPFDDWGGASEVAAPPSYGAQHHHQPTPSVPEVTRSSYPSQNDDFDDEWTDEDDEQEPTRPNVQSSIGSNSRRDLSRSHSEHGGPDRGSNKVNKNINRFSNFVKSGVEAYVIGESKTTSQISERHEVVMNNGIIQWKPIQQYYTCIVDKPKKESKLKGLKSFIAYSITSSLTNIQRQVSRRYKHFDWLHEQLSAKYVLIPIPPLPEKQVAGRYEEDLIDHRKHILQLWVNKICRHPVLSQSEVWLHFISCTDEKDWKNGKRRAEKDEYIGGAFLNCITVPHQPLDPNNVDMQVERFQRSVKTSEEAMRVMQERMNMFQKVFAGPVKQNWQKMGSAFKTLQQSFEIDETVASRRLTEALAYTASEYHEIGQVFDAHTKNDMEPVLENLYSYKGTVQNVPDIIQVHKQAVQKFRDSEGRLSSAEAEKMKQRIDAMSYTVIAEVQHQTAEKVEDMKSTMGTYLKKQAMFYQEVATKLTSLAARYD”, the “soluble on expression in E. coli” value was “not soluble”. Take “MEQLYPAPIKTVEEGSPAARAGVRPGDVLLRVNGQPVTDVLAYRHQLERGVVTLEVARPHEAPRVMTGVLEHHHHHH”: the “soluble on expression in E. coli” value is given as “not soluble”. With “MTIKIALLGFGTVAKGIPYLLKENQHKLLSLEGEDIVIDKVLVRDNESRQRFINQGFTYNFVTEINTILQDSQIDIVVELMGGIEPAKTYLSQALGFGKHIVTANKDLIALHGKELMDLADARGLALFYEGAVAGGIPILRTLSHSFASDKMTRLLGILNGTSNFMLTKMFEEGW”, the “soluble on expression in E. coli” value is on record as “not soluble”. The same measure for “MGSDKIHHHHHHMKIAVINFSGNVGKTTVSRHLLLPRIQGAELISVESVNADEGKTTALRGGQFAELQEYLQTVNSAIVDIGASNVDQLLFLMQSYRGSHEDFDCFVVPTVPPLKQQQDTIATLIDLSRLGVPPSRLKILFNMTEPGRPVEQTFYLLLAYLAQHPIAVPNTACSLGANEIYGRIRGIKSDLGTLARDTTDYKSLIAKAKDATEKLALAQKLATRRLASGVVLELDACFGALDLHALSAGASPTETSAEA”: “not soluble”; for “SQWIMHKTSTPEFCASCHSMSYPQQEWEGSSHFANAKGVRAQCSDCHIPKEGWHYVKAKFIALKDLWYEAQGKIENKEKYEAHRAEMAQRVWKDMKANDSETCRSCHSFDAMELSKQTKLAKQTHTEAQTNGQTCIDCHKGIVHFLPEVHGDQNTQKSSAVQGGTLSDGSAIFATEMVKATNDKGNEVRLMPYAELMQWKVDGDQIQGTLHGWQQVGAEAVVYQELGKRITLALMDEDARNHVQVLKIVHDAVTDSDWKEISVAVNVAKEKMTSDLTTLNQYGNQLNQTQCSGCHAAIGADHYTA”: “not soluble”. Next, “MAISLQKGQRISLSKEAPGLSKMMCGLGWDVAKRSGGGFFSNFGGGGQNYDLDASVICLDANGKLTAKENIIYFGNLQHLSGAITHTGDNLTGAGDGDDEVIIVDLPRIPAQIVKLVFVVNIYDCIARKQDFSQIENAFVRLVNAANNKELARYNLSGKEYLGMTGMVLAEVYRHNDDWKLAAIGNGVNVNGLGELAGSYS”: “not soluble”; “MRRVEKVIIVEGRSDKQKVAAVLNEPVVIVCTNGTISDARLEELADELEGYDVYLLADADEAGEKLRRQFRRMFPEAEHLYIDRAYREVAAAPIWHLAQVLLRARFDVRIESLMRGRGE”: “soluble”. In the case of “MSLNKLCVAALSVNNFCDNREALYGVFDGDRNVEVPYLLQCTMSDILAEELQKTKNEEEYMVNTFIVMQRKLGTAGQKLGGAAVLCHIKHDPVDPGGSFTLTSANVGKCQTVLCRNGKPLPLSRSYIMSCEEELKRIKQHKAIITEDGKVNGVTESTRILGYTFLHPSVVPRPHVQSVLLTPQDEFFILGSKGLWDSLSVEEAVEAVRNVPDALAAAKKLCTLAQSYGCHDSISAVVVQLSVTEDEGHHHHHH”, the “soluble on expression in E. coli” value is “not soluble”.

For “MGSDKIHHHHHHCSCNDLLDEKAYDFVSPEQLGDSESAASQLVTGAYNTVITSFIAPGSYLYLTNMDCDYASGASWAFGNVGAGNPQGFWGIDHMWQGSYTLIHRANLGISKISAMSNLSQESKQDALAQLCFLKAWAYFNLVRNYGPVPIFRKSISEGEAMSQPRASVSDVYAHIIELLEQAEGMYSKDDAGFVVGHASNGAAKALLAKVYVTMASGAMSGVPIVVKGGNPNIFEPQPITHIAKTVAGYESFDPAKYYALARDKAWEVINEYTLFDNYMDVWAIGNRNKGEHIWMAQAISGDKDFGNTICQDYVGIFKEDGTMEGNWYGMRDHWYLLFEEQDKRIVDGVIHRYASDGISNGKVIYNYYPRWYADKVENKEVYDSQGNAFDGTEVYHEGQGWTLAKLTKFTFVTDRKQKNSDFHFPLLRLPDIMLIYAEAVNELNGGPDAEAYNQVNRIRTRAHATPFSGMNQDEFRSAVLEERARELAYEADRRYDLFRWGIYLDVMNAIDMDEHNVTKRRLERNLLYPIPTSEVNSNDKIDSNNPGW”, the “soluble on expression in E. coli” value is “not soluble”. On to “MNALPPARRLRVASIGGGFSGAALAWHLARAHRPERLSISVIEPRLALGGGLAYSSEEPSHRVNVPAVRMSMAPDDPQHFVRWLAGSGELERDADAIWKNGDAYPRRRVFGRYVAEHLAPYLASGAVRHVGGPATGVTREANGAGWTVQTSAGPVIADIVVLAATHPAPAIPAALASLAEASGFVADPYAASALAGIGLDASVLIVGSGLTSADMVTELDRRGHRGRVLALSRRGLRSRGHPDVRGEPFGDFASAPATSALGLLKSIRATLAAAREANVNWQSVFDQLRLQGPVLWAALAPSERARLVRQLRVFWDVHRFRIAPQIASVLDRRQTAGTFDTIAARLVASNDEGENLAVSFQRRGQTRIETARFDAVINTTGPAHGQALQLNPALRSLAEAGLIRSDAYGLGIETSLDSRAIGWDGEAVAGLFVAGPLARGTFGELMGLPEVARHAQMVAAEIARLVDRFPSAEAVGANAGDVATARLEHHHHHH”, for which the “soluble on expression in E. coli” value is “not soluble”. As to “SSCTIEKILTDAKTLLERLREHDAAAESLVDQSAALHRRVAAMREAGTALPDQYQEDASDMKDMSKYKPHILLSQENTQIRDLQQENRELWISLEEHQDALELIMSKYRKQMLQLMVAKKAVDAEPVLKAHQSHSAEIESQIDRICEMGEVMRKAVQVDDDQFCKIQEKLAQLELENKELRELLSISSESLQARKENSMDTASQAIK”, the “soluble on expression in E. coli” value is “soluble”. Turning to “MDDIRCAIIIDPDLPPGVIANTAAVLAMSLGKRHPELVGQDLPDARGQPRQGITTVPIPVLKGGADQLRALRAAASETGLTLVELTSATRFTRSYQEYAAALAATPEEMVEYQGLALCGPGKRVRQLTGSLGLLRLEHHHHHH”, the “soluble on expression in E. coli” value is “not soluble”. Next, “MKASIYDFTLKELSQLLKPSFRAKQLYLWLYAKYKTSFKDMQNNFSKDFIAYLEREFALRTIEITHVRESVDGSKKYLFKSLRDNHTFEAVLLKMKDKKIDAETNAILEREKYTVCVSCQIGCQVGCSFCFTQKGGFVRNLKASEIIQQALLIKEDNNLPLEKALNIVFMGMGEPLNNLDEVCKAIEIFNTGMQISPKRITISTSGVADKIPILAGKNLGVQLAISLHAVDDKTRSSLMPLNKKYNIECVLNEVRKWPLEQRKRVMFEYLLIKDLNDSLDCAKKLLKLLNGIKSKVNLILFNPHEGSKFERPSLENARMFADFLNSKGLLCTIRESKALDIEAACGQLREKKLSQQILEHHHHHH”: “soluble”; “MSLTSNIFSGCMPALMTPCKADRSPDFDALVKKGKELIEAGMSAVVYCGSMGDWPLLTDEQRMEGVERLVKAGVPVVVGTGAVNTRVAVAHAAHAAKVGARGLMVIPRVLSRGSSVSAQRNHFSDILKAAPSLPAVIYNSPYYGFATRADLFFDLRREFPNLIGFKEFGGLADLRYAAENITSQDDQVTLMVGVDTAVYHGFVNCGATGAITGIGNALPKEVLHLVALCQKAAEGHAEARLRARELEEALAVLSSFDEGSDLVLYYKHLMVLNGEDEYRLHFNETDALSDAQRNYAEAQYELFRTWYADWSTKGEGHHHHHH”: “soluble”. As for “MSQPAKVLLLYAHPESQDSVANRVLLKPAIQHNNVTVHDLYARYPDFFIDTPYEQALLREHDVIVFQHPLYTYSCPALLKEWLDRVLSRGFASGPGGNQLVGKYWRSVITTGEPESAYRYDALNRYPMSDVLRPFELTAAMCRMHWMPPIIVYWARRQSPQTLASHAKAYGEWLANPVSAGGY”, the “soluble on expression in E. coli” value was “not soluble”.

For the sequence “MNSPPINEFIQAVVYDHSIATGLKACKTDQDIVDYAASKGFIFSSSEWQLYLALDRKTLSDSELAKILVVPVEHWSWAFRKVALWRAMLMDGV”, the “soluble on expression in E. coli” value is given as “not soluble”.
